Reference: publication PMC6111841
Values joined by “and” are separate entries in the source; they are usually repeats but may differ in a detail not shown here. Equal entries are not always repeated.

Tests used:
HelD (Bacillus subtilis) [1] = target: HelD (Bacillus subtilis) (UniProt O32215); assay: AUC; sedimentation velocity, HelD 5 uM in Buffer A (20 mM HEPES pH 7.5, 150 mM NaCl), 40,000 rpm, 4 °C, c(s) model in SEDFIT
HelD (Bacillus subtilis) [2] = target: HelD (Bacillus subtilis) (UniProt O32215); assay: SEC; Superdex 200 Increase 10/300 GL, Buffer A (20 mM HEPES pH 7.5, 150 mM NaCl), 500 uL purified protein, 0.5 mL/min, 4 °C

Sequence of HelD (O32215 whole entry): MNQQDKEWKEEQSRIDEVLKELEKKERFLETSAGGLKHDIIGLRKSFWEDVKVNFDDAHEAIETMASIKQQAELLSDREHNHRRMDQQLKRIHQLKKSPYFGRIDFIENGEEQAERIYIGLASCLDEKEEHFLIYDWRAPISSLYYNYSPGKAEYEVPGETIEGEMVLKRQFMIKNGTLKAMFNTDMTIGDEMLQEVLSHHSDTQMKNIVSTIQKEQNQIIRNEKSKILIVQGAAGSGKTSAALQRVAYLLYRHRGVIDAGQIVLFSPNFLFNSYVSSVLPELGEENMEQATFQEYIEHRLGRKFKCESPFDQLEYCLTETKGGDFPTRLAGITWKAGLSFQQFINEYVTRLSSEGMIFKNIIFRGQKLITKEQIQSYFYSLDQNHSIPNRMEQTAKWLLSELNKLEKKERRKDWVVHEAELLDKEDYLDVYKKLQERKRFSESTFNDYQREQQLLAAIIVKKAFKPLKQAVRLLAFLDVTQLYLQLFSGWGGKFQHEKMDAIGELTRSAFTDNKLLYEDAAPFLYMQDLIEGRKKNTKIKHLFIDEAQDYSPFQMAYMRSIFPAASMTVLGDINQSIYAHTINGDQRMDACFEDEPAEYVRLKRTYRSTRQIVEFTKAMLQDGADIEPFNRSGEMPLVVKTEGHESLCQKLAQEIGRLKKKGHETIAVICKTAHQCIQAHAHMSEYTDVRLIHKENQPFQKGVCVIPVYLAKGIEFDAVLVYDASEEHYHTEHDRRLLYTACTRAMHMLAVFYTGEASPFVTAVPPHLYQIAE

- population of higher order oligomers (HelD (Bacillus subtilis) [1]): 20%
- stoichiometry N (HelD (Bacillus subtilis) [2]): 2 and 3
Substance: HelD (from UniProt O32215 1-774) (natural protein)
